Here are results for 1 substance from paper PMC11661447.

This experiment deals with RNA-dependent RNA polymerase (RdRp) of HuNoV GII.4 Sydney strain (human norovirus GII.4 Sydney strain). As to the kind of experiment: SEC + AUC; purified RdRp alone, physiologically relevant conditions (pH 7.5); sedimentation velocity of 10 μM RdRp at 40,000 rpm, 22°C; monomer, dimers and higher-order oligomers.

Turning to “RNA-dependent RNA polymerase (RdRp) of HuNoV GII.4 Sydney strain (enzyme)”, the percent as dimers turned out to be 15%, the percent as monomer stood at 75% and the stoichiometry N worked out at 2.

In general, stoichiometry N refers to a count of units in the complex or per binding partner.
